Data taken from patent publication US8663964B2, “Methods of treating human papillomavirus” (Tamir Biotechnology, Inc., priority 2011, dated 2014).

Key:
HPV type 11 = experiment: quantitative reverse transcriptase PCR (QRT-PCR) antiviral assay against HPV type 11 in A-431 cells; format: cell-based, type 11 human papillomavirus; settings: HPV-11 in A-431 cells
Description: To evaluate the activity of the tested RNases against type 11 HPV infections, the following quantitative PCR assay was used:
Solutions of the tested RNases were prepared in cell culture medium without use of dimethyl sulfoxide (“DMSO”). DMSO is unnecessary because the tested RNases are water-soluble.
HPV is an DNA virus. Antiviral activity against HPV type 11 was evaluated using a quantitative reverse transcriptase PCR (QRT-PCR) assay. Initially, on Day 1, 1 million A-431 cells were placed in 6-well dishes in Dulbecco's Modified Eagle Medium (“DMEM”) supplemented with 10% fetal bovine serum (“FBS”). The cells were then incubated for two days at 37° C.
After this incubation period, on day 2 replicate aliquots of HPV-11 were added to each non-control well, representing a multiplicity of infection (“MOI”) of 150 particles per cell in DMEM containing 2.5% FBS.
One day later, i.e. on day 3, DMEM with 10% FBS was added to each cell culture well.
One day later, i.e. on day 4, the tested compounds were added to the non-control cell culture wells. Control wells received media alone, or the vehicle used to dilute the tested compounds. Cidofovir diluted to 300 ug/ml was used as a positive control. […]
Finally, one day later, on […], QRT-PCR was carried out to quantitate the proportion of viral E1^E4 transcripts and a cellular reference RNA for the TATA-binding protein (“TBP”). […]

cancer cells = settings: because of enzymatic activity against RNA; cited from earlier work
[1] = cited from earlier work

Molecule | activity against type 11 HPV (as seen in FIG. 1; SI = CC50/EC50) (HPV type 11) | cytotoxicity to cancer cells (cancer cells) | toxicity and tolerability in humans [1]
Val11, Asn20, Arg103—Ranpirnase ['805 variant] | extraordinarily active | cytotoxic to certain cancer cells | –
ranpirnase (protein, UniProt P22069 1-104, looked up, An RNase disclosed and claimed in U.S. Pat. No. 5,559,212; registered trademark ONCONASE) Protein P-30: QDWLTFQKKHITNTRDVDCDNIMSTNLFHCKDKNTFIYSRPEPVKAICKGIIASKNVLTTSEFYLSDCNVTSRPCKYKLKKSTNKFCVTCENQAPVHFVGVGSC | extraordinarily active | cytotoxic to cancer cells | non-toxic and well-tolerated
